In patent US7244577:

Biological target: low-density lipoprotein (LDL) particles, 125I-labelled
Experiment: cell-based or functional assay

uptake of 125I-LDL by FH fibroblasts infected with LDL-receptor adenovirus [fold]	uptake of 125I-LDL by FH fibroblasts infected with LRP5 adenovirus [% increase]	Substance
20		LDL-receptor (from UniProt P01130 22-860) (receptor; the values are: fold increase in LDL uptake)
	60	human LDL-receptor related protein-5 (LRP5), isoform 1 (from UniProt O75197 32-1615)
